US20090275081A1

Columns and labels:
[1] = target: carcinoembryonic antigen (CEA) on LS174T-CEA+ human colon carcinoma cells (human) (UniProt P06731); assay: flow cytometry on live LS174T-CEA+ cells, detected with Alexa Fluor 488 streptavidin; percent positive staining
[2] = target: streptavidin agarose beads (ImmunoPure streptavidin coated beads, Pierce) (UniProt P22629); assay: pull-down of 3.5 ug purified protein on streptavidin agarose beads, Western blot with SA HRP
[3] = target: carcinoembryonic antigen (CEA) on LS174T-CEA+ human colon carcinoma cells (human) (UniProt P06731); assay: flow cytometry on live LS174T-CEA+ cells, detected with Qdot655SA; percent positive staining
[4] = target: streptavidin agarose beads (ImmunoPure streptavidin coated beads, Pierce) (UniProt P22629); assay: pull-down on streptavidin agarose beads, Western blot

Chain of UniProt P22629 (P22629 37-163 limits assumed): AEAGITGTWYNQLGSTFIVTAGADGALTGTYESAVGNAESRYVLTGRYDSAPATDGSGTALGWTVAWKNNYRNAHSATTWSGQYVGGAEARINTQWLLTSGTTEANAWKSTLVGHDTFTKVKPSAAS
Chain of UniProt P06731 (P06731 35-702): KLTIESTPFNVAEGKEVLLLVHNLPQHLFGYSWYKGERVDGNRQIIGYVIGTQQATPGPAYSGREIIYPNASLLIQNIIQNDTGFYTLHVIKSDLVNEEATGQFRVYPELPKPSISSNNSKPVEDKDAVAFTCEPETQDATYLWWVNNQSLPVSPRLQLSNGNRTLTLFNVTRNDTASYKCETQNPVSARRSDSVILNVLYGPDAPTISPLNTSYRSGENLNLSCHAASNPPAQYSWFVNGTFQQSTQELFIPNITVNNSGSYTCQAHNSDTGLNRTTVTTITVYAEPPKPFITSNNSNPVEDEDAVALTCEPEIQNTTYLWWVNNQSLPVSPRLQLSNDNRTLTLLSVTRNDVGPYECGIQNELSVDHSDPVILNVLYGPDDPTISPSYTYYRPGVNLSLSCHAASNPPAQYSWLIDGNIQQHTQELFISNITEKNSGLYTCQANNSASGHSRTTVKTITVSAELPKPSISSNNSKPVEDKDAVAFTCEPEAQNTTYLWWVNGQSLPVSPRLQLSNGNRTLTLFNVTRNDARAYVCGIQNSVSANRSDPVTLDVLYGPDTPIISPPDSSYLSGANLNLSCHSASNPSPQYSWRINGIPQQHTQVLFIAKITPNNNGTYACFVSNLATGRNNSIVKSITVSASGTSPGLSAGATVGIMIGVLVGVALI

## Db-BP15-His (biotinylated anti-CEA T84.66 diabody with 15 aa biotin acceptor peptide followed by 6xHis tag)
[1]
  LS174T binding (%), Streptavidin Alexa: 56%
[2]
  Binding with streptavidin agarose (%): 90%
[3]
  LS174T binding (%), Qdot streptavidin: 41%
[4]
  percent unbound: 10%

## Db-BD123 (biotinylated anti-CEA T84.66 diabody fused to the 123 aa biotin acceptor domain of P. shermanii)
[1]
  LS174T binding (%), Streptavidin Alexa: 11.7%
[2]
  Binding with streptavidin agarose (%): 95%
[3]
  LS174T binding (%), Qdot streptavidin: 17.7%
